In FireProtDB (doi:10.1021/bi972279a):

Conditions: Saccharomyces cerevisiae (strain ATCC 204508 / S288c), pH 4.6, Thermal, CD, acetate 100 mM, reversible: yes; for ddG of mutation (higher = less stable) / heat capacity change of unfolding / unfolding free energy: 25 °C

Cytochrome c isoform 1 P82S, P00044, sequence (P00044 whole entry P82S, canonical isoform): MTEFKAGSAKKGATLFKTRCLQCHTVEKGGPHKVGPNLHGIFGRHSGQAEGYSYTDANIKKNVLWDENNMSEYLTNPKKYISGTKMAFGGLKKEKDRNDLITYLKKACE
Cytochrome c isoform 1 P82Y, P00044, sequence (P00044 whole entry P82Y, canonical isoform): as the sequence (P00044 whole entry P82S, canonical isoform) above, with S82Y counted along it
Cytochrome c isoform 1 P82G, P00044, sequence (P00044 whole entry P82G, canonical isoform): as the sequence (P00044 whole entry P82S, canonical isoform) above, with S82G counted along it
Cytochrome c isoform 1 P82W, P00044, sequence (P00044 whole entry P82W, canonical isoform): as the sequence (P00044 whole entry P82S, canonical isoform) above, with S82W counted along it
Cytochrome c isoform 1 wild type, P00044, sequence (P00044 whole entry, canonical isoform): as the sequence (P00044 whole entry P82S, canonical isoform) above, with S82P counted along it
Cytochrome c isoform 1 P82R, P00044, sequence (P00044 whole entry P82R, canonical isoform): as the sequence (P00044 whole entry P82S, canonical isoform) above, with S82R counted along it
Cytochrome c isoform 1 P82V, P00044, sequence (P00044 whole entry P82V, canonical isoform): as the sequence (P00044 whole entry P82S, canonical isoform) above, with S82V counted along it
Cytochrome c isoform 1 P82L, P00044, sequence (P00044 whole entry P82L, canonical isoform): as the sequence (P00044 whole entry P82S, canonical isoform) above, with S82L counted along it

| Substance | ddG of mutation (higher = less stable) (structure 1YCC) | heat capacity change of unfolding (structure 1YCC) | unfolding free energy (structure 1YCC) | Tm (structure 1YCC) | change of melting temperature, mutant - wild type (higher = more stable) (structure 1YCC) | heat capacity change of unfolding | unfolding free energy | Tm |
| --- | --- | --- | --- | --- | --- | --- | --- | --- |
| Cytochrome c isoform 1 P82G, P00044 | 0.78 kcal/mol | 1.37 kcal/mol/K | 4.3 kcal/mol | 48.5 °C | -5 °C | – | – | – |
| Cytochrome c isoform 1 P82L, P00044 | – | – | – | 48.6 °C | -4.9 °C | – | – | – |
| Cytochrome c isoform 1 P82R, P00044 | 0.97 kcal/mol | 1.37 kcal/mol/K | 4.11 kcal/mol | 48.6 °C | -4.9 °C | – | – | – |
| Cytochrome c isoform 1 P82S, P00044 | 1.89 kcal/mol | 1.37 kcal/mol/K | 3.19 kcal/mol | 47.8 °C | -5.7 °C | – | – | – |
| Cytochrome c isoform 1 P82V, P00044 | 1.07 kcal/mol | 1.37 kcal/mol/K | 4.01 kcal/mol | 48.3 °C | -5.2 °C | – | – | – |
| Cytochrome c isoform 1 P82W, P00044 | 2.38 kcal/mol | 1.37 kcal/mol/K | 2.7 kcal/mol | 47 °C | -6.5 °C | – | – | – |
| Cytochrome c isoform 1 P82Y, P00044 | 2.07 kcal/mol | 1.37 kcal/mol/K | 3.01 kcal/mol | 46.7 °C | -6.8 °C | – | – | – |
| Cytochrome c isoform 1 wild type, P00044 | – | – | – | – | – | 1.37 kcal/mol/K | 5.08 kcal/mol | 53.5 °C |
